The text below walks through data of patent US20260209325A1 (SCHOLAR ROCK, published 2026).

Read-outs that look alike come from different tables or passages of the source.

Assay [1] concerns the target T1, human pro-myostatin (human, UniProt O14793 24-375, biotinylated (in the SPR assay)).
T1 construct: Disulfide-linked homodimer; also called proGDF8 (human)
Description: Ab KD, summary Table 11; method and antigen not stated there.

Assay [2] addresses T2, recombinant human latent myostatin (human, UniProt O14793 24-375, biotinylated (in the Octet pH assay only)). Description: cell-based or functional assay.
The target of assay [3] is T2, recombinant human latent myostatin. As to the kind of experiment: BLI (Octet Red384): streptavidin biosensors loaded with biotinylated human latent myostatin, antibody association 300 s, dissociation in PBS at pH 7.4 or pH 5.5. On the procedure: (§1) Binding was performed at pH 7.4 and dissociation at pH 5.5 in an Octet Red384@assay. Streptavidin biosensors were baselined in 1x kinetics buffer (KB) (Sartorius) for one minute, then loaded with 100 nM biotinylated human latent myostatin for five minutes, followed by another baseline step of one minute in 1x KB. Binding of test antibodies was performed for five minutes and then dissociation was performed in PBS at either pH 7.4 or pH 5.5 for five minutes. Analysis was performed using a partial fit, in which full dissociation was projected. Kd at pH 5.5 was divided by Kd at pH 7.4 to calculate pH sensitivity.
(In general: BLI is a label-free optical method that tracks binding on a fibre tip over time.)

The target is the same in assay [4]. As to the kind of experiment: cell-based or functional assay. This is another data set of the same source.
The target in assay [5] is T1, human pro-myostatin. Description: cell-based or functional assay.
Assay [6] has as its target T3, murine pro-myostatin (mouse, UniProt O08689 25-376, biotinylated (in the SPR assay)).
T3 construct: also called proGDF8 (mouse); mouse pro-myostatin
As to the kind of experiment: SPR Biacore 8K, biotin-antigen captured.

Assay [7] has as its target T4, cyno pro-myostatin (cynomolgus monkey, Biotinylated for capture in the SPR assay (site not stated). The native form is a disulfide-linked homodimer, partly furin-cleaved; one chain is given.).
T4 construct: also called proGDF8 (cynomolgus); cynomolgus monkey pro-myostatin
Description: SPR Biacore 8K, biotin-antigen captured.

The target in assay [8] is T1, human pro-myostatin. As to the kind of experiment: SPR Biacore 8K, biotin-antigen captured. A general note: Surface plasmon resonance follows binding to a sensor surface in real time, without labels.
In assay [9] the target is T2, recombinant human latent myostatin. Description: cell-based or functional assay. This is another data set of the same source.
Assay [10] shares this target. Description: BLI (Octet Red384): streptavidin biosensors loaded with biotinylated human latent myostatin, antibody association 300 s, dissociation in PBS at pH 7.4 or pH 5.5. On the procedure: as §1
This is another data set of the same source.

Assay [11] has as its target T4, cyno pro-myostatin. As to the kind of experiment: plate binding assay, absorbance at 450 nm, antibody titrated 100 to about 0.002 nM, panel 'Cyno Pure Pro-GDF-8' (method not described in the text).
For assay [12], the target named is T1, human pro-myostatin. Description: plate binding assay, absorbance at 450 nm, antibody titrated 100 to about 0.002 nM, panel 'Human Pure Pro-GDF-8' (method not described in the text).
Assay [13] deals with T4, cyno pro-myostatin. As to the kind of experiment: plate binding assay, OD 450 nm, antibody titrated 0.0003 to 100 nM, panel 'Cyno-Pro-GDF-8 Plate 3' (method not described in the text).
The target of assay [14] is T3, murine pro-myostatin. Description: plate binding assay, OD 450 nm, antibody titrated 0.0003 to 100 nM, panel 'Mu-Pro-GDF-8 Plate 3' (method not described in the text).
Assay [15] has as its target T1, human pro-myostatin. Description: plate binding assay, OD 450 nm, antibody titrated 0.0003 to 100 nM, panel 'Hu-Pro-GDF-8 Plate 3' (method not described in the text).
For another assay, the target named is mouse GDF-11 (mouse, UniProt Q9Z1W4 297-405, limits assumed). As to the kind of experiment: plate binding assay, OD 450 nm, one antibody concentration that is not given, on Mu-GDF-11 (method not described in the text).
In another assay the target is human GDF-11 (human, UniProt O95390 299-407, limits assumed). As to the kind of experiment: plate binding assay, OD 450 nm, one antibody concentration that is not given, on Hu-GDF-11 (method not described in the text).
Assay [16] concerns the target T1, human pro-myostatin. As to the kind of experiment: plate binding assay, OD 450 nm, antibody titrated 0.0003 to 100 nM, panel 'Hu-Pro-GDF-8 Plate 1' (method not described in the text).

human GDF-11, sequence (O95390 299-407 limits assumed): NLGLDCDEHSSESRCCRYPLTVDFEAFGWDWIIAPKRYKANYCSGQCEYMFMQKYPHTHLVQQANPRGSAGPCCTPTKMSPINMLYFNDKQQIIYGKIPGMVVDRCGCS
mouse GDF-11, sequence (Q9Z1W4 297-405 limits assumed): as the sequence (O95390 299-407 limits assumed) above

B1: Ab109 (antibody, human IgG4 S228P, kappa, V domains shown)
VH: EVQLVESGGGLVQPGGSLRLSCAASGFTFSSYGMSWVRQAPGKGLELVASFTGSGGTYYPDSVKGRFTISRDNAKNSLYLQMNSLRAEDTAVYYCARDLLIRFLEWSHYYGMDVWGQGTTVTVSS
VL: DIVMTQSPLSLPVTPGEPASISCRSSQSLLHSSGHNFLHWYLQKPGQSPQLLIYEVSNRVSGVPDRFSGSGSGTDFTLKISRVEAEDVGVYYCMQQTQYPPTFGGGTKVEIKR
notes: human IgG4 in the EM experiment; also called Ab109 Human IgG4
On to B1, for which the Kd with human pro-myostatin [1] was 579 pM; with murine pro-myostatin [6] it was 197 pM; with cyno pro-myostatin [7] it was 128 pM; in the assay with human pro-myostatin [8], 138 pM. Further, the “mTLL2 IC50” value in assay [2] came out at 145 pM. Further, the “fold difference in off-rate (Kd at pH 5.5 / Kd at pH 7.4)” value in [3] was determined as 25 fold; in assay [10], 18.4 fold. Besides, in assay [4], the “IC50 (nM) Latent + mTLL2” value was 0.145 nM. The “IC50 (nM) Pro + Furin” value with human pro-myostatin [5] was found to be 0.214 nM. Moreover, the koff stood at 0.00134 s⁻¹ with murine pro-myostatin [6] and 0.000925 s⁻¹ in the assay with cyno pro-myostatin [7]. In addition, the values for the kon with murine pro-myostatin [6], with cyno pro-myostatin [7] and with human pro-myostatin [8] were 6.81e+06 M⁻¹ s⁻¹, 7.23e+06 M⁻¹ s⁻¹ and 6.62e+06 M⁻¹ s⁻¹, respectively. In addition, in assay [9], the “IC50 of inhibition of myostatin activation by mTLL-2 (functional ELISA, FIG. 1A)” value was determined as 380 pM. Besides, the “IC50 of inhibition of myostatin activation by mTLL-2 (functional ELISA, FIG. 1B)” value in assay [9] amounted to 330 pM.

B2: Ab132 (antibody, human IgG4 S228P, kappa, V domains shown)
VH: EVQLVESGGGLVQPGGSLRLSCAASGFTFSSYGMSWVRQAPGKGLELVASFTGSGGTYYPDSVKGRFTISRDNAKNSLYLQMNSLRAEDTAVYYCARDLLIRFLEWSHYYGMDVWGQGTTVTVSS
VL: DIVMTQSPLSLPVTPGEPASISCRSSQSLLHSSGHNFLHWYLQKPGQSPQLLIYEVSNRVSGVPDRFSGSGSGTDFTLKISRVEAEDVGVYYCQQQTQYPPTFGGGTKVEIKR
In the assay with human pro-myostatin [1], B2 came in with a Kd of 926 pM. Besides, in assay [2], the “mTLL2 IC50” value is 144 pM. Further, the “fold difference in off-rate (Kd at pH 5.5 / Kd at pH 7.4)” value in assay [3] came to 24 fold.

B3: Ab106 (antibody, human IgG4 S228P, kappa, V domains shown)
VH: EVQLVESGGGLVQPGGSLRLSCAASGSAFSSYGMSWVRQAPGKGLELVASINSNGGSTYYPDSVKGRFTISRDNAKNSLYLQMNSLRAEDTAVYYCARDLLVRFLEWAGYYGMDVWGQGTTVTVSS
VL: DIVMTQSPLSLPVTPGEPASISCRSSQSLLHSSGHNFLHWYLQKPGQSPQLLIYEVSNRVSGVPDRFSGSGSGTDFTLKISRVEAEDVGVYYCMQQTQYPPTFGGGTKVEIKR
As for B3, the “EC50 (read off the curve)” value with cyno pro-myostatin [11] and with human pro-myostatin [12] was approximately 200 pM in each case. Besides, in [4], the “IC50 (nM) Latent + mTLL2” value was 0.163 nM. Also, the “IC50 (nM) Pro + Furin” value in the assay with human pro-myostatin [5] was found to be 0.233 nM. Moreover, the Kd in the assay with murine pro-myostatin [6] worked out at 162 pM; with cyno pro-myostatin [7], 152 pM; with human pro-myostatin [8], 112 pM. The koff is 0.000317 s⁻¹ in the assay with murine pro-myostatin [6], 0.000291 s⁻¹ with cyno pro-myostatin [7] and 0.000224 s⁻¹ in the assay with human pro-myostatin [8]. The results for the kon with murine pro-myostatin [6], in the assay with cyno pro-myostatin [7] and with human pro-myostatin [8] were 1.96e+06 M⁻¹ s⁻¹, 1.91e+06 M⁻¹ s⁻¹ and 2e+06 M⁻¹ s⁻¹, respectively.

B4: Ab135 (antibody, human IgG4 S228P, kappa, V domains shown)
VH: EVQLVESGGGLVQPGGSLRLSCAASGSAFSSYGMSWVRQAPGKGLELVASINSNGGSTYYPDSVKGRFTISRDNAKNSLYLQMNSLRAEDTAVYYCARDLLVTFLRWSHYYGMDVWGQGTTVTVSS
VL: DIVMTQSPLSLPVTPGEPASISCRSSQSLLHSSGHNFLHWYLQKPGQSPQLLIYEVSNRVSGVPDRFSGSGSGTDFTLKISRVEAEDVGVYYCMQQTQYPPTFGGGTKVEIKR
With B4, the “EC50 (read off the curve)” value with cyno pro-myostatin [11] is approximately 300 pM. Also, the “IC50 (nM) Latent + mTLL2” value in [4] amounted to 0.154 nM.

B5: Ab122 (antibody, human IgG4 S228P, kappa, V domains shown)
VH: QVTLRESGPALVKPTQTLTLTCTVSGGSLSSGGSYVNWIRQPPGKALEWLAMTDWDADNIVYNSALKSRLTISKDTSKNQVVLTMTNMDPVDTATYYCAHRQNVDSYGYWGDAFDIWGQGTMVTVSS
VL: DIVMTQSPDSLAVSLGERATINCKSSQSVLYSADNKNYLAWYQQKPGQPPKLLIYDASSLENGVPDRFSGSGSGTDFTLTISSLQAEDVAVYYCQQGHLFPYSFGGGTKVEIKR
notes: The light chain is printed ending ...NRGE, without the last C
Consider B5, for which the “EC50 (read off the curve)” value with cyno pro-myostatin [13] was approximately 200 pM; with murine pro-myostatin [14] it was approximately 600 pM; in the assay with human pro-myostatin [15] it was approximately 500 pM.

B6: Ab127 (antibody, human IgG4 S228P, kappa, V domains shown)
VH: EVQLVESGGGLVQPGGSLRLSCTASGFTFGSYPMDWVRQAPGKGLEWVSYISGRGDVTYYADSVKGRFTISRDNAKNTLYLQMNSLRAEDTAVYYCAKVQSPSELLWFGELLPVDYWGQGTLVTVSS
VL: DIQMTQSPSSLSASVGDRVTITCQASQVIKTWLNWYQQKPGKAPKLLIYDASNLQRGVPSRFSGSGSGTDFTFTISSLQPEDIATYYCQQSASTPITFGGGTKVEIKR
As to B6, the “EC50 (read off the curve)” value with cyno pro-myostatin [13] is approximately 300 pM; with murine pro-myostatin [14], approximately 600 pM; with human pro-myostatin [15] it was approximately 400 pM. In addition, in [4], the “IC50 (nM) Latent + mTLL2” value was determined as 0.14 nM. Moreover, the “IC50 (nM) Pro + Furin” value with human pro-myostatin [5] stood at 0.195 nM. The binding result with mouse GDF-11 and in the assay with human GDF-11 was “no binding” in each case. In addition, the Kd came to 325 pM with murine pro-myostatin [6], 327 pM in the assay with cyno pro-myostatin [7] and 262 pM in the assay with human pro-myostatin [8]. Besides, the koff in the assay with murine pro-myostatin [6] is 0.000265 s⁻¹; in the assay with cyno pro-myostatin [7], 0.000269 s⁻¹; with human pro-myostatin [8], 0.000213 s⁻¹. Also, the kon in the assay with murine pro-myostatin [6] was found to be 815000 M⁻¹ s⁻¹; with cyno pro-myostatin [7] it was 821000 M⁻¹ s⁻¹; with human pro-myostatin [8] it was 813000 M⁻¹ s⁻¹.

B7: Ab126 (antibody, human IgG4 S228P, kappa, V domains shown)
VH: EVQLVESGGGLVQPGGSLRLSCTASSFTFSNYAMDWVRQAPGKGLEWVSYISSDASTTYYADSVKGRFTISRDNAKNTLYLQMNSLRAEDTAVYYCARDGGYNPGIFDYWGQGTLVTVSS
VL: DIQMTQSPSSLSASVGDRVTITCQASQSIGRWLNWYQQKPGKAPKLLIYDASILQTGVPSRFSGSGSGTDFTFTISSLQPEDIATYYCQQSFTTPPLTFGGGTKVEIKR
As to B7, the binding result in the assay with mouse GDF-11 is reported as “no binding”; with murine pro-myostatin [14] it was “binds”; in the assay with human pro-myostatin [15] it was “binds”; with human GDF-11, “no binding”.

B8: Ab110 (antibody, human IgG4 S228P, kappa, V domains shown)
VH: QVQLVQSGAEVKKPGASVKVSCKVSEYTFTNYDIHWVRQAPGKGLEWMGGISAYHGNAIYAQKFQGRVTMTEDTSTDTAYMELSSLKSEDTAVYYCARDRVRRDYYNFGMDVWGQGTTVTVSS
VL: DIQMTQSPSSVSASVGDRVTITCRASEDITSYLAWYQQKPGKAPKLLIYDVSSLQSGVPSRFSGSGSGTDFTLTISSLQPEDFANYYCLQHNAYPYGFGGGTKVEIKR
With B8, the “EC50 (read off the curve)” value in the assay with human pro-myostatin [16] was approximately 500 pM.

What is called Kd is the concentration at which binding is half-saturated. Usually koff stands for a measure of how fast the partners let go of each other. A higher koff goes with a short-lived complex. As usually defined, the kon is the rate constant with which the complex forms. In general, EC50 (read off the curve) refers to the midpoint of the concentration-response curve. Read a high EC50 (read off the curve) as a need for much substance.
